Where no end group is shown, it is not given here. [ ]: non-standard residue; d: D form. The star is where a group is joined. Palmitoyl = CCCCCCCCCCCCCCCC(=O)*
B1: peptide 27 (Pal-KRNNSRLGNGVLY-NH2) (peptide)
peptide: Palmitoyl-KRNNSRLGNGVLY-NH2
SMILES: CCCCCCCCCCCCCCCC(=O)N[C@@H](CCCCN)C(=O)N[C@@H](CCCNC(=N)N)C(=O)N[C@@H](CC(N)=O)C(=O)N[C@@H](CC(N)=O)C(=O)N[C@@H](CO)C(=O)N[C@@H](CCCNC(=N)N)C(=O)N[C@@H](CC(C)C)C(=O)NCC(=O)N[C@@H](CC(N)=O)C(=O)NCC(=O)N[C@H](C(=O)N[C@@H](CC(C)C)C(=O)N[C@@H](Cc1ccc(O)cc1)C(N)=O)C(C)C
B2: peptide 16 (Pal-RNNSRLGNGVLY-NH2) (peptide)
peptide: Palmitoyl-RNNSRLGNGVLY-NH2
SMILES: CCCCCCCCCCCCCCCC(=O)N[C@@H](CCCNC(=N)N)C(=O)N[C@@H](CC(N)=O)C(=O)N[C@@H](CC(N)=O)C(=O)N[C@@H](CO)C(=O)N[C@@H](CCCNC(=N)N)C(=O)N[C@@H](CC(C)C)C(=O)NCC(=O)N[C@@H](CC(N)=O)C(=O)NCC(=O)N[C@H](C(=O)N[C@@H](CC(C)C)C(=O)N[C@@H](Cc1ccc(O)cc1)C(N)=O)C(C)C
B3: peptide 15 (Pal-NNSRLGNGVLY-NH2) (peptide)
peptide: Palmitoyl-NNSRLGNGVLY-NH2
SMILES: CCCCCCCCCCCCCCCC(=O)N[C@@H](CC(N)=O)C(=O)N[C@@H](CC(N)=O)C(=O)N[C@@H](CO)C(=O)N[C@@H](CCCNC(=N)N)C(=O)N[C@@H](CC(C)C)C(=O)NCC(=O)N[C@@H](CC(N)=O)C(=O)NCC(=O)N[C@H](C(=O)N[C@@H](CC(C)C)C(=O)N[C@@H](Cc1ccc(O)cc1)C(N)=O)C(C)C
B4: peptide 17 (Pal-NSRLGNGVLY-NH2) (peptide)
peptide: Palmitoyl-NSRLGNGVLY-NH2
SMILES: CCCCCCCCCCCCCCCC(=O)N[C@@H](CC(N)=O)C(=O)N[C@@H](CO)C(=O)N[C@@H](CCCNC(=N)N)C(=O)N[C@@H](CC(C)C)C(=O)NCC(=O)N[C@@H](CC(N)=O)C(=O)NCC(=O)N[C@H](C(=O)N[C@@H](CC(C)C)C(=O)N[C@@H](Cc1ccc(O)cc1)C(N)=O)C(C)C
B5: peptide 19 (Pal-SRLGNGVLY-NH2) (peptide)
peptide: Palmitoyl-SRLGNGVLY-NH2
SMILES: CCCCCCCCCCCCCCCC(=O)N[C@@H](CO)C(=O)N[C@@H](CCCNC(=N)N)C(=O)N[C@@H](CC(C)C)C(=O)NCC(=O)N[C@@H](CC(N)=O)C(=O)NCC(=O)N[C@H](C(=O)N[C@@H](CC(C)C)C(=O)N[C@@H](Cc1ccc(O)cc1)C(N)=O)C(C)C
B6: peptide 20 (Pal-RLGNGVLY-NH2) (peptide)
peptide: Palmitoyl-RLGNGVLY-NH2
SMILES: CCCCCCCCCCCCCCCC(=O)N[C@@H](CCCNC(=N)N)C(=O)N[C@@H](CC(C)C)C(=O)NCC(=O)N[C@@H](CC(N)=O)C(=O)NCC(=O)N[C@H](C(=O)N[C@@H](CC(C)C)C(=O)N[C@@H](Cc1ccc(O)cc1)C(N)=O)C(C)C
B7: peptide 21 (Pal-VSAYLVGNGLRSNNR-NH2) (peptide)
peptide: Palmitoyl-[dV][dS][dA][dY][dL][dV]G[dN]G[dL][dR][dS][dN][dN][dR]-NH2
SMILES: CCCCCCCCCCCCCCCC(=O)N[C@@H](C(=O)N[C@H](CO)C(=O)N[C@H](C)C(=O)N[C@H](Cc1ccc(O)cc1)C(=O)N[C@H](CC(C)C)C(=O)N[C@@H](C(=O)NCC(=O)N[C@H](CC(N)=O)C(=O)NCC(=O)N[C@H](CC(C)C)C(=O)N[C@H](CCCNC(=N)N)C(=O)N[C@H](CO)C(=O)N[C@H](CC(N)=O)C(=O)N[C@H](CC(N)=O)C(=O)N[C@H](CCCNC(=N)N)C(N)=O)C(C)C)C(C)C
B8: peptide 3 (Pal-HRKRNNSRLGNGVLYASVN-NH2) (peptide)
peptide: Palmitoyl-HRKRNNSRLGNGVLYASVN-NH2
SMILES: CCCCCCCCCCCCCCCC(=O)N[C@@H](Cc1c[nH]cn1)C(=O)N[C@@H](CCCNC(=N)N)C(=O)N[C@@H](CCCCN)C(=O)N[C@@H](CCCNC(=N)N)C(=O)N[C@@H](CC(N)=O)C(=O)N[C@@H](CC(N)=O)C(=O)N[C@@H](CO)C(=O)N[C@@H](CCCNC(=N)N)C(=O)N[C@@H](CC(C)C)C(=O)NCC(=O)N[C@@H](CC(N)=O)C(=O)NCC(=O)N[C@H](C(=O)N[C@@H](CC(C)C)C(=O)N[C@@H](Cc1ccc(O)cc1)C(=O)N[C@@H](C)C(=O)N[C@@H](CO)C(=O)N[C@H](C(=O)N[C@@H](CC(N)=O)C(N)=O)C(C)C)C(C)C
B9: peptide 29 (Pal-RNNSRLGNGVLF-NH2) (peptide)
peptide: Palmitoyl-RNNSRLGNGVLF-NH2
SMILES: CCCCCCCCCCCCCCCC(=O)N[C@@H](CCCNC(=N)N)C(=O)N[C@@H](CC(N)=O)C(=O)N[C@@H](CC(N)=O)C(=O)N[C@@H](CO)C(=O)N[C@@H](CCCNC(=N)N)C(=O)N[C@@H](CC(C)C)C(=O)NCC(=O)N[C@@H](CC(N)=O)C(=O)NCC(=O)N[C@H](C(=O)N[C@@H](CC(C)C)C(=O)N[C@@H](Cc1ccccc1)C(N)=O)C(C)C
B10: peptide 30 (Pal-RNNSRLGNGVL-NH2) (peptide)
peptide: Palmitoyl-RNNSRLGNGVL-NH2
SMILES: CCCCCCCCCCCCCCCC(=O)N[C@@H](CCCNC(=N)N)C(=O)N[C@@H](CC(N)=O)C(=O)N[C@@H](CC(N)=O)C(=O)N[C@@H](CO)C(=O)N[C@@H](CCCNC(=N)N)C(=O)N[C@@H](CC(C)C)C(=O)NCC(=O)N[C@@H](CC(N)=O)C(=O)NCC(=O)N[C@H](C(=O)N[C@@H](CC(C)C)C(N)=O)C(C)C
B11: peptide 4 (Pal-HRKRNNSRLGNGVLYASVNPEYFSAA-NH2) (peptide)
peptide: Palmitoyl-HRKRNNSRLGNGVLYASVNPEYFSAA-NH2
SMILES: CCCCCCCCCCCCCCCC(=O)N[C@@H](Cc1c[nH]cn1)C(=O)N[C@@H](CCCNC(=N)N)C(=O)N[C@@H](CCCCN)C(=O)N[C@@H](CCCNC(=N)N)C(=O)N[C@@H](CC(N)=O)C(=O)N[C@@H](CC(N)=O)C(=O)N[C@@H](CO)C(=O)N[C@@H](CCCNC(=N)N)C(=O)N[C@@H](CC(C)C)C(=O)NCC(=O)N[C@@H](CC(N)=O)C(=O)NCC(=O)N[C@H](C(=O)N[C@@H](CC(C)C)C(=O)N[C@@H](Cc1ccc(O)cc1)C(=O)N[C@@H](C)C(=O)N[C@@H](CO)C(=O)N[C@H](C(=O)N[C@@H](CC(N)=O)C(=O)N1CCC[C@H]1C(=O)N[C@@H](CCC(=O)O)C(=O)N[C@@H](Cc1ccc(O)cc1)C(=O)N[C@@H](Cc1ccccc1)C(=O)N[C@@H](CO)C(=O)N[C@@H](C)C(=O)N[C@@H](C)C(N)=O)C(C)C)C(C)C

The binders below were run against Insulin-like growth factor 1 receptor (IGF1R) (UniProt P08069 31-1367, limits assumed) (assay: cell-based or functional assay).
Chain of Insulin-like growth factor 1 receptor (IGF1R) (P08069 31-1367 limits assumed): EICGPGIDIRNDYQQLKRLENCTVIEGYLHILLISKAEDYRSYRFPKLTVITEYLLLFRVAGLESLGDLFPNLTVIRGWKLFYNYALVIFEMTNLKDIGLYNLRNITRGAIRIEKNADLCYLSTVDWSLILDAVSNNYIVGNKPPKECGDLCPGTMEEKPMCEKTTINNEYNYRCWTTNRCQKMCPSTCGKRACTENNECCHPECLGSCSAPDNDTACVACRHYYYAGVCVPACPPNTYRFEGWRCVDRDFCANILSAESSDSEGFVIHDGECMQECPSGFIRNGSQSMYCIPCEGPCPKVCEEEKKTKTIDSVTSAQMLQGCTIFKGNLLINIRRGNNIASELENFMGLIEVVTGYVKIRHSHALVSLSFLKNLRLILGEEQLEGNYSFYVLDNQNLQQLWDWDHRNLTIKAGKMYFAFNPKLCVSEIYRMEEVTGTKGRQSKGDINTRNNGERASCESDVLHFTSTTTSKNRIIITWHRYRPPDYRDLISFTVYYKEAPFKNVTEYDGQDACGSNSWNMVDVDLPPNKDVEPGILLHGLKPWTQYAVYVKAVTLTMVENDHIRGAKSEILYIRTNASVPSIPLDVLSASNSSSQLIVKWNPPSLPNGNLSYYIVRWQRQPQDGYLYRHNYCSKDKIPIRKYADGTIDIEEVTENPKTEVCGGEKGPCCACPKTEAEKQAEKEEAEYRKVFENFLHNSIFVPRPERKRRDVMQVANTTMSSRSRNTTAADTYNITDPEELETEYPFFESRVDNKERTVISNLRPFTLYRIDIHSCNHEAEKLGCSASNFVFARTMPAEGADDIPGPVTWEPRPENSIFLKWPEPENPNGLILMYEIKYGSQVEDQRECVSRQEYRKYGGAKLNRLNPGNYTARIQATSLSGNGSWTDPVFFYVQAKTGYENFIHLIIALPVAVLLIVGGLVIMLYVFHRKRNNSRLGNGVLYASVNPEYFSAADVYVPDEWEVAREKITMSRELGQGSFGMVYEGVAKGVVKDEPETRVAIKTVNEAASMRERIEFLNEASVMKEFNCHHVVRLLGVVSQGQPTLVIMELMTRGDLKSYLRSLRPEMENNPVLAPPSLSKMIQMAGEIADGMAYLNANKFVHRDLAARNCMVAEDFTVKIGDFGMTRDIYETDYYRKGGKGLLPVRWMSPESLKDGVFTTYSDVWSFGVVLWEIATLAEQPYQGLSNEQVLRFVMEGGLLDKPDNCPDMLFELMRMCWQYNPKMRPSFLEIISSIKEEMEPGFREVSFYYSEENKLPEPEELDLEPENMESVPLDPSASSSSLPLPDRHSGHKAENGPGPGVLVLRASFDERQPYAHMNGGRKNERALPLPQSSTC

Binder	GI50 (µM), MTT assay, MCF-7 cells	TGI (µM), MTT assay, MCF-7 cells
B1	1.1 µM	2.5 µM
B2	0.07 µM	0.5 µM
B3	0.1 µM	1.5 µM
B4	0.2 µM	1.5 µM
B5	0.15 µM	2 µM
B6	0.2 µM	> 5 µM
Ac-[dY][dL][dV]G[dN]G[dL][dR][dS][dN][dN][dR][dK](Palmitoyl) [peptide 18 (Ac-YLVGNGLRSNNRK-(ε-Pal)), retro-inverso version of peptide 27]	0.04 µM	0.4 µM
B7	0.04 µM	0.1 µM
B8	1 µM	1.55 µM
B9	0.1 µM	1.2 µM
B10	1.7 µM	3.7 µM
Palmitoyl-RNNSRLGNGVLYA-NH2 (not fully specified; printed as Pal-RNNSRLGNGVLYA-NH2) [peptide 33 (Pal-RNNSRLGNGVLYA-NH2)]	0.1 µM	> 5 µM
Palmitoyl-RNNSRLGNGVLYAS-NH2 (not fully specified; printed as Pal-RNNSRLGNGVLYAS-NH2) [peptide 34 (Pal-RNNSRLGNGVLYAS-NH2)]	0.04 µM	> 5 µM
Palmitoyl-RNNSRLGNGVLYASV-NH2 (not fully specified; printed as Pal-RNNSRLGNGVLYASV-NH2) [peptide 35 (Pal-RNNSRLGNGVLYASV-NH2)]	0.05 µM	2.5 µM
B11	1 µM	> 5 µM

Reference: patent publication US20110195911A1, “SYNTHETIC ANALOGS OF THE JUXTAMEMBRANE DOMAIN OF IGF1R AND USES THEREOF” (THE UNITED STATES OF AMERICA,AS REPRESENTED BY THE …, priority 2008, published 2011)
